In the nanobody polyreactivity screen of Harvey et al. (2022):

Assay: yeast display, Sf9 membrane polyspecificity reagent, FACS + sequencing; frameworks hold sequencing errors
Method in brief: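 Galactose-induced (36–48 hours) yeast carrying a synthetic nanobody display library were exposed to 10% biotinylated, detergent-solubilized Sf9 membrane reagent at 4 °C for 1 hour. FACS followed streptavidin microbead enrichment, using low and high (top ~1%) gates for expression (anti-HA) and reagent binding (streptavidin). Colony PCR, MiSeq 2 × 250 sequencing and CDR-length filtering followed. Labels for polyreactivity reflect the gate of origin.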

| Sequence | polyreactivity (PSR sort gate) |
| --- | --- |
| QVQLVESGGGLVQAGGSLRLSCAASGRTFVIYTMGWYRQAPGKERELVAAITQRGGITYYADSVKGRFTISRDNAKNTVYLQMNSLKPEDTAVYYCNSGRTYRRLGDYWGQGTQVTVSS | high polyreactivity |
| QVQIVESGGGLVQAGGSLRLSCAASGRIFDYYTMGWYRQAPGKERELVASISDGGRTNYADSVKGRFTISRDNAKNTVYLQMNSLKPEDTAVYYCAADFAPVAFDYWGQGTQVTVSS | low polyreactivity |
| QVQLVESGGGLVQAGGSLRLRCAASGRIVYWYAMGWYIQAPGKERELVATINQSGSSTYYADSVKGRFTISRDNAKNTVYLQMNSLKPEDTAVYYCARARSHYAYYWWNAGTGLDYWGQGTQVTVSS | high polyreactivity |
| QVQLVETGGGLVQAGGSLRLSCAASGSTFGTYAMGWDRQAPGKERELVAAISSGDSTTYADSVKGRFTISRDNAKNTVYLQMNSLKPEDTAVYYCAARTFLMRNGGYNYWGQGTQVTVSS | low polyreactivity |
| QVQLVESGGGLVQAGGSLRLSCAASGSIFRGNAMGWYRQAPGKERELVAVITWSGGSTYYADSVKGRFTISRDNAKNTVYLQMNSLKPEDTAVYYCNAARKQRVYFAGDYWGQGTQVTVSS | high polyreactivity |
| QVQLVESGGGLVQAGGSLRLSCAASVSTFEANAMGWYRQAPGKERELVAVITWTGGSTYYADSVKGRFTISRDYAKNNVYLQMNSLKPEDTAVYYCAAKFHRFAWYSHYDYWGQGTQVTVSS | low polyreactivity |
| QVQLVESGGGLVQAGGSLRITCAASGSTFATYTIGWYRQPPGKEMELVAAISVSGSRTYADSVKGRFTISRDNAKNSVYLQMNSLKPEDTAVYYCAPRNYSVASYGEYDYWGQGTQVTVSS | high polyreactivity |
| QVQLVESGGGLVQAGGSHRLSSAASGSTFAYHHMGWYRQAPGKEREFVADIRSGGNTNYADSVKGRFTISRDNAKKTVYLLMNSLNPEDTAVYYCATDGYRIDVYHPDYRYDYWGQGSQVTVSS | low polyreactivity |
| QVQLVESGGGLVQAGGSLRISCADSGITYSANAMGWYRQAPGKERELVAAITGSGGGTYYADSVKGRFTISRDNAKNTVYLQMNSLKPEDTAVYYCKADNYYYSGFDYWGQGTQVTVSS | low polyreactivity |
| QVQLVESGGGLVQAGGSLRLSGAASGYIFLGNAMGWYRQAPGKERELVAAISRSGGSTYYADSVKGRFTISRDNAKNTVYFHMNSLKPEYTAVYYCAADLPNPKWYGYDYWGQGTQVNVSS | high polyreactivity |
| QVQLVESGGGLVQAGGSLRLSCAASGRTFRYYAKGWYRPAPGTERELVADISSTGRTYYADSVKGRFTISRDNAKNTVYLQMNSLKPEDTAVYYCNADYFFEFDYWGQGTQVTVSS | low polyreactivity |
| QVQLVESGGGLVQAGGSLRLSCAASGSTFWKYAMGWYRQAPGKERELVARISRNGGSTYYADSVKGRFTISRDNAKNTVYLQMNSLKPEDTAVYYCATAYVHYVYKYDYWGQGTQVTVSS | high polyreactivity |
| QVQLVESGGGLVQAGGSLRLSCAASGRIFSLNTMGWYRQAPGKERELVATITKRGGNTYYADSVKGRFTISRDNAKNTVYLQMNSLKPEDTAVYYCAVPRSITYRYGYWGQGTQVTVSS | high polyreactivity |
| QVQLVESGGGLVQAGGSLRLSCAASGFTFYPYAMGWYRQAPGKERELVAAISNGDSTHYADSVKGRFTISRDNAKNTVYLQMNSLKPEDTAVYYCAAVRGYPSRITSYVYTYGYWGQGTQVTVSS | low polyreactivity |
| QVQLVESGGGLVQAGGRLRLSCAASGSIFSRNAMGRYRQATGKESELVAAISRGGSTNYADSVKGRFTISRDNAKNTVYLQMNSLKPEDTAVYYCANVGRRSWYRWLGPLWYGGMDYWGQGTQVTVSS | low polyreactivity |
| QVQLVESGGGLFQAGGSLRLSCAASGFIFTRYAMGWYRQAPGKERELVAAISWSGGSTYYADSVKGRFTISRDNAKNTVYLQMNSLKPEDTAVYYCAADGSDSYDYWGQGTQVTVSS | low polyreactivity |
| QVQIVESGGGLVQAGGSLRLSCAASGFIFYYYDMGWYRQAPWKERELVAVLTESGSSTYYADSVKGRFTITRDNAKNNVYLQMNSLKPEDTAVYYCAADGRASVGGLGDDYWGQGTQVTVSS | low polyreactivity |
| QVQLVESGGGLVQAGGSLRLSCAASGFIFGYYAMGWYRQAPGKERELVAAISGDAGRTYYADSVKGRFTISRDNAKNTVYLQMNSLKPEDTAVYYCADADTYKMDYWGQGTQVTVSS | low polyreactivity |
| QVQLVESGGGLVQAGGSLRLSCAASGFTFIYYAMGWYRQAPGKERELVAAISASGGSTYYADSVKGRFTISRDNSKNTVYLQMNSLKPEDTAVYYCDAYRVWYRGYPMGYWGQGTQVTVSS | high polyreactivity |
| QVQLVESGGGLVQAGGSLRLSCAASGRTFSYYTMGWDRQAPGKERELVASITSDSSTNYADSVKGRFTISRDNAKNTVYLQMNSLKPEHTAVYYCAADHWIAPRRDYWGQGTQVTVSS | low polyreactivity |
| QVQLVESGGGLVQAGGSLRLSCAASGRSLRGYAMGWYRQAPGKERELVAAISRRGGSTRYADSVKGRFTISRDNAKNTVYLQMNSLKPEDTAVYYCAAPDFPKYYPTAYLQADEYWGQGTQVTVSS | high polyreactivity |
| QVQLVESGGGLVQAGGSLRLSCAASGSIFIRNAMGWYRQAPGKERELVAAITSGGNTYYADSVKGRFTISRDNAKNTVYFQMNSLKPEDTAVWGQGTQVTLSS | low polyreactivity |

| Sequence | polyreactivity (PSR sort gate) |
| --- | --- |
| QVQLEESGGGLVQAGGSLRLSCAASGGIFWYNAMGWYRQAPGKERELVADISSSGITYYADSVKGRFTISRDNAKNTVYLQMNSLKPEDTAVYYCAADSTTRPGLRVYDDYDYWGQGTQVTVSS | low polyreactivity |
| QVQLVESRVGLVQAGGSLRLSCAASGITLYYYALGWYRHAPGKEREFVAAITWRGTTTYYADSVKGPFTISRDNAKNTVYLQMNSLKPEDTALYYCAAEHEQRVADYYYWGQGTQVTVSS | low polyreactivity |
| QVQLVESGGGLVQAGGSLRLSCAASGRIFLINAMGWYRQARGKEWELVAAIRTGGNTYYADSVKGRFTISRDNAKTTVYLQMNSLKPEDTAVYYCAAARIYPYYRWSGAHRSDVDYWGQGTQVTVSS | low polyreactivity |
| QVQLVESGGGLVQAGGSLRLSCAASGITFGRNTMGWSRQAPGKEREMVASITRGGNTNYADSVKGRFTISRDNAKNTVYLQLNSLKPEDTAVYYCAARSTYRVSHVDYWGQGTQVTVSS | low polyreactivity |
| QVQLVESGGGLVQAGGSLRLSCAASGRIFGTYAMGWYRQAPGKERELVASITDRGDSTYADSVKGRFTISRDNAKNTVYLQMNSLKPEDTAVYYCAVGYNSKLAVGMYYWGQGTQVTVSS | low polyreactivity |
| QVQLVESGGGLVQAGGSLRLSCAASGSIFEQYPMGWYRQAPGKERELVAAISRRSGRTYYADSVKGRFTISRDNAKHTVYLQMHSLIPEDTAVYYCAASGIYFVQYNSWGQGTHVTVSS | high polyreactivity |
| QVQLVESGGGLVQAGASLRLSCSASGRTFLNYTMGWSRHAPGTERELVAAIRYRDGSTYYADSVKGRFTISRDNAKNTVYLQMNSLKPVDTAVYYCNTRITQVGDYIYDYWGQGTQVTVSS | low polyreactivity |
| QVQLVESGGGLVQAGGSLRLSCAASGSIFYTYAMGWSRQAPGKEREFVAAITSSGGSTYYADSVKGRFTISRDNAKNTVYLQMNSLKPEDTAVYYCAADSGSTSEYEYWGQGTQVTVSS | low polyreactivity |
| QVQLVESGGGLVQAGGSLSLSCAASGFIFGWYAMGWFRQAPGKERELVAAIYASGTRTYYADSVKGRFTISRDNAKNTVYLQMNSLKPEDTAVYYCNVYTKFVYAYDYWGQGTQVTVSS | high polyreactivity |
| QVQLVESGGGLVQAGGSLRLSCAASGITFNYYAMGWYRQAPGKERELVATINRSGGTTYYADSVKGRITISRDNAKNTVYLQMNSLKPEDTAVYYCNARYTSRGRYHSGYDYWGQGTQVTVSS | high polyreactivity |
| QVQLVESGGGLVQAGGSLRLSCAASGSTSRGYAMGWYRPAPGKERELVASITLSGGNTYYADSVKGRFTISRDSAKNTVYFQMYSLKPVDTAVYYCAADDRGSSYGHFTVEYGNWGQGTQVTVSS | low polyreactivity |
| QVQLVESGGGLVQAGGSLRLSCAASGSIFVWYAMGWYRQAPGKERELVAVISYGGDRTSYADSVKGRFTISRDNAKNTVYLQMNSLKPEDTAVYYCAARPFYRGYYYWGQGTQVTVSS | high polyreactivity |
| QVQLVESGGGLVQAGGSLRLSCAASGRIFTGNAMGWYRQAPGKERELVAAITGRGGNTYYADSVKGRFTISRDNAKNTVYLQMNSLKPEDTAVYYCAKVFFHTPIVPEFEYWGQGTQVTVSS | low polyreactivity |
| QVQLVESGGGLVQAGGSLRLSCAASGSTFTTNAMGWDRQAPGKERELVAAITWSVGSTYYADSVKGRFTISRDYAKNTVYLQMNSVKPEDNAVYYCAAYHPPGDTYEYWGQGTQVTVSS | low polyreactivity |
| QVQLVESGGGLVQAGGSLRLSCAASGSTFGPYAMGWYRQAPGKERELVAGITWSSASTYYADSVKGRFTISRDNAKNTVYLQMNSLKPEDTAVYYCIADSESTDYDYWGQGTQVTVSS | low polyreactivity |
| QVQLVESGGGLVQAGGSLRLSCAASGSIYWYAMGWYRQAPGKERQLVAAITKSGSSTYYADSVKGRFTISRDNAKNTVYLQMNSLIPEDTAVYYCAARRAVSGGVRTYYWGQGTQVTVSS | high polyreactivity |
| QVQLVESGGGLVQAGGSLRLSCAASGIIFGRYAMGWYRQAPGKERELVAAITRSGGRTYYADSVKGRFTISRDNAKNTVYLQMNSLKPEDTAVYYCAADASGHSYDYWGQGTQVTVSS | high polyreactivity |
| QVQLVESGGGLVQAGGSLRLSCAASGFTFRYNAMGWYRQAPGKERELVAAITWRGGRTYYADSVKGRFTISRDNAKNTVYLQMNSLKPEDTAVYYCAVYRTSTRYVVDSDYWGQGTQVTVSS | low polyreactivity |
| QVQLVESGGGLVQAGGSLRLSCAPSGRTFYINAMGWYRQAPGKEREFVAAITTSGGGTYYADSVKGRFTISRDNAKNTVYLQMNSLKPEDTAVYYCNTRSRRGKDGRYDYWGQGTQVTVSS | high polyreactivity |
| QVQLVESGGGLVQAGGSLRLSCAASGSTFRGYTMGRNRQAPGKERELVAAISFRGTSTYYADSVKGRFTISRDNAKITVYLQMNSLIPEDTAVDYCAAVYTWGPGYGHDYWGQGTQVTVSS | low polyreactivity |
| QVQLVESGGGLVQAGGSLRLSCDASGSIFPHNAMGWYRQAPGKERELVAAISVSGGSKYYADSVKGRFTISRDNAKNTVYLQMNSLKPEDTAVYYCAAYAYGGRINGYRTYRYNYWGQGTQVTVSS | high polyreactivity |
